Measured values: patent publication US20250235501A1, “Methods and Compositions for Treating or Preventing Neurological Injury or Neurological Disorders” (University of Connecticut, priority 2024, published 2025)

What was measured:
[1] = target: T1, TRPM2 interaction with GluN2b (Rattus norvegicus, UniProt Q00960); test: Co-IP of TRPM2 with GluN2b in co-transfected HEK293T cells; assay type: cell-based, human; settings: 10 μM peptide overnight; IP anti-GluN2b, WB anti-Flag
T1 construct: TRPM2 plasmid a gift 17928; 17924; 17925; host or cells: HEK293T
T1 sequence (Q00960 27-1482, other chains not shown): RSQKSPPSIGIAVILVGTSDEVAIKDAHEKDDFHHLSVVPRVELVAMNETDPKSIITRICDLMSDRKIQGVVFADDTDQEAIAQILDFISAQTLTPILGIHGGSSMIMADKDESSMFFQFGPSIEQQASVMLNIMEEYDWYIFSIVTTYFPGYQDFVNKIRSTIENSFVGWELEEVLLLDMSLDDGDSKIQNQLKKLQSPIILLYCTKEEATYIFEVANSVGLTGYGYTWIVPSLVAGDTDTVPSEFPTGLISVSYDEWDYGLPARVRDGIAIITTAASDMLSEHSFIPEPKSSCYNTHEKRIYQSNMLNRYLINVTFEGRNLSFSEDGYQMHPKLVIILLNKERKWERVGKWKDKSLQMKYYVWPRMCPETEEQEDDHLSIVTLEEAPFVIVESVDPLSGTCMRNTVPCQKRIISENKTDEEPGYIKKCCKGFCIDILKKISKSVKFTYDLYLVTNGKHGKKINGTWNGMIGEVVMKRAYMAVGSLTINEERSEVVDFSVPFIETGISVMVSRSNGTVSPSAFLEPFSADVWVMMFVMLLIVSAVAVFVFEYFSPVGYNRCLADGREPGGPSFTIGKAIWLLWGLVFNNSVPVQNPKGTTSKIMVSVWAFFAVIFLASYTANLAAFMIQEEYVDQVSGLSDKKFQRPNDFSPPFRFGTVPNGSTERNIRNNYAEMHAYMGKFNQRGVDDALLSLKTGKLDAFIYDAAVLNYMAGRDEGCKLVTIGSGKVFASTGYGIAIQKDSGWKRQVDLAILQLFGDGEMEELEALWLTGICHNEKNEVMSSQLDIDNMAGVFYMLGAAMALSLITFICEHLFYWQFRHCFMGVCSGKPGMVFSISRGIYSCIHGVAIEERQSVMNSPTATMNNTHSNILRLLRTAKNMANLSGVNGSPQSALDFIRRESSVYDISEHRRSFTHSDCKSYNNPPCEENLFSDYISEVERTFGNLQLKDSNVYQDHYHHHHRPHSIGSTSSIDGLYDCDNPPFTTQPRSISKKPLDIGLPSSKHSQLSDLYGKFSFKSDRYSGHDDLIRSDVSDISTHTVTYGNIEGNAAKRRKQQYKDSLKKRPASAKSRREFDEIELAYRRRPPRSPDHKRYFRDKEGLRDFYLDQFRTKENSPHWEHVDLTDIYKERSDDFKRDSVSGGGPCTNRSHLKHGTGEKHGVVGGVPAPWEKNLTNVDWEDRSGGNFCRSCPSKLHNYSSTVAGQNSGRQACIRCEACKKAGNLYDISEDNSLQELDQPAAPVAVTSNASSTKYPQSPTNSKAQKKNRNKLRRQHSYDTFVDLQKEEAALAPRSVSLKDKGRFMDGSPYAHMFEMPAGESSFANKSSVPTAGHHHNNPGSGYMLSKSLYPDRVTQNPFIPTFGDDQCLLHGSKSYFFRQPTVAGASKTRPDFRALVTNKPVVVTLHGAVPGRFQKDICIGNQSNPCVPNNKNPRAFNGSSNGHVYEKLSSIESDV
Protocol: FIGS. 5A and 5B show the effects of TAT-EE3 on interaction of TRPM2 and NMDARs. Co-IP tests of NMDARs with WT or EE3 domain mutants of TRPM2 (Flag-tagged) in co-transfected HEK293T cells. WT TRPM2 groups were treated with 10 μM TAT-SC or TAT-EE3 overnight. Lysates were IP's with anti-GluN2a (FIG. 5A) or anti-GluN2b (FIG. 5B), and probed by WBs with anti-Flag. IgG was used as control for IP. Similar to the mutants TRPM2-ΔEE3 and TRPM2-EQE, TAT-EE3 disrupted TRPM2 interaction with GluN2a and GluN2b.
were ordered from GenScript Biotech, and dissolved in PBS to make a stock concentration at 10 mM. HEK-293T cells or isolated neurons were treated with TAT-SC or TAT-EE3 at a concentration of 10 μM for at least 8 h prior to use. Mice were injected with TAT-SC or TAT-EE3 intraperitoneally (ip) at a dose of 100 nmol/kg. […]
NP-40 lysis buffer ([…], 150 mM NaCl, 1 mM EDTA, 50 mM Tris, pH=8.0) containing proteinase inhibitors (Sigma-Aldrich, 539131-10VL) and phosphatase inhibitors (Thermal Fisher Scientific, 78428) was used to lyse both cultured cells and frozen brain tissue. […] Protein concentration was measured using Pierce™ Rapid Gold BCA Protein Assay Kit (Thermal Fisher Scientific, A53225). […] Then samples were ready for western blotting analysis.

[2] = system: cultured cortical neurons; test: Mitochondrial function under OGD, Rh123 de-quenching assay; assay type: cell-based, mouse; settings: WT neurons; 10 μM peptide overnight; 30 min OGD
Protocol: FIGS. 6F-6G show the effects of TAT-EE3 on mitochondrial function evaluated using R123 de-quenching assay. Cultured cortical from gM2KO mice, nM2KO mice and WT control littermates were incubated with 10 μM TAT-SC or TAT-EE3 for overnight before OGD exposure. […] External perfusion solution aCSF containing no Ca2+ (No Ca2+) was used as a control. WT neuron without OGD exposure was used as a control (WT control) to illustrate the rapid photo bleaching of Rh123. […] The accumulated numbers of neurons in each group for data analysis were from 3˜5 independent experiments using neurons isolated from 3 mice/group (***, p<0.001; ANOVA, Bonferroni's test; mean±SEM).
Mice pups at P0 were euthanized based on animal protocol. Whole brain was dissected out immediately and immersed in ice-cold Hank's Balanced Salt Solution (HBSS). […] Isolated cells were counted and plated on coverslips pre-coated with poly-L-lysine (Sigma-Aldrich, P4707) at a density about 500×10^3 cells/cm2 for OGD and H2O2 treatment, and 100×10^3 cells/cm2 for current recording. […]
Mitochondria function was evaluated using Rhodamine-123 dequenching as previously reported. […]
Fluorescence intensities at 509 nm with excitation at 488 nm was collected every 15 s for 30 min using CoolSNAP HQ2 (Photometrics) and data were analyzed using NIS-Elements (Nikon).

TAT-EE3: membrane permeable disrupting peptide, sequence YGRKKRRQRRREEDTDSSEEMLALAEE (SEQ ID NO: 4)
interaction of TRPM2 with GluN2b (co-IP) [1]: completely disrupted
mitochondrial membrane depolarization induced by OGD (Rh123 fluorescence) [2]: markedly inhibited
